From US20260250421A1 (BIOCYTOGEN PHARMACEUTICALS BEIJING, published 2026)
Where a chain is given by its changes, count along the chain named. Blank lines part the entries; values can stand above or below the binder they belong to.

How the values were obtained:
[1] = molecular target: T1, human PTK7 on human cancer cell lines (human, UniProt Q13308 31-1070); experiment: flow cytometry, NCI-H358 cells, Ab 5 ug/mL
T1 construct: Endogenous PTK7 of human tumour cell lines; also called PTK7 on A-431, NCI-H520, NCI-N87, SK-OV-3, BT-20, HCC1954, NCI-H226, NCI-H358, HCT116, PC-3, NCI-H292, NCI-H1975 cells
T1 sequence: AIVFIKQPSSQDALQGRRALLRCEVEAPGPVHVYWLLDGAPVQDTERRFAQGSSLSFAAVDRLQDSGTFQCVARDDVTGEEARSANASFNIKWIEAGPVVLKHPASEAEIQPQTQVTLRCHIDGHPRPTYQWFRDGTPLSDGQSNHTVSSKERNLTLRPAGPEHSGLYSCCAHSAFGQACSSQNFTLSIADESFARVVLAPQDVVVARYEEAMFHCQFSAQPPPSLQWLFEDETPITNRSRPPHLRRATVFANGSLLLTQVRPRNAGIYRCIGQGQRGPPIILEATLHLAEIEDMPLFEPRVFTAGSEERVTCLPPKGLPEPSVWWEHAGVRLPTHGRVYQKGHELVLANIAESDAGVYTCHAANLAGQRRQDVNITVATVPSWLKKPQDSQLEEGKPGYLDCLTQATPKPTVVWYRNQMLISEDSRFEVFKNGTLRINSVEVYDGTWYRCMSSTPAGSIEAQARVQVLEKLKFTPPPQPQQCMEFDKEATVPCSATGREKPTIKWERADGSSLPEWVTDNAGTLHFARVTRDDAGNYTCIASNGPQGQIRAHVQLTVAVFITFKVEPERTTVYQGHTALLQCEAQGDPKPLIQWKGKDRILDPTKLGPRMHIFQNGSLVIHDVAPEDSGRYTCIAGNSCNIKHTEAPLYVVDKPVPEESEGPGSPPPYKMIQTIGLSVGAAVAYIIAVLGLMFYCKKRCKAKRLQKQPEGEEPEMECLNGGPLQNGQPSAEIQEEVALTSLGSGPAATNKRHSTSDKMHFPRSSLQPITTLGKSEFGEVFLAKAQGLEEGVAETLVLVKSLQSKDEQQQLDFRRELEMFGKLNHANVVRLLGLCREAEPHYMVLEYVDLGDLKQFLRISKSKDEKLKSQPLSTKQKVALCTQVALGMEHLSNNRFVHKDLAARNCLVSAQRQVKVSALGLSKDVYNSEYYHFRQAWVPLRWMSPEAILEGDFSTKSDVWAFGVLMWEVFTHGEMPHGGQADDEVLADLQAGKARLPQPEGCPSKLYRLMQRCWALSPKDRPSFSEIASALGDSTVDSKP
Protocol: The binding activity of anti-PTK7 antibodies to cancer cell lines was verified by flow cytometry. […] Purified anti-PTK7 antibody with a concentration of 5 μg/mL was added to each well and was incubated at 4° C. for 30 minutes. […] The cells were collected, and the mean fluorescence intensity (MFI) was determined. Human IgG1 was used as ISO control.

[2] = molecular target: T2, His-tagged human PTK7 protein (human, UniProt Q13308 31-704); experiment: BLI Octet binning on hPTK7-His; competitor hu24 analog
T2 construct: Bought protein; also called hPTK7-His; not shown: His tag
T2 sequence: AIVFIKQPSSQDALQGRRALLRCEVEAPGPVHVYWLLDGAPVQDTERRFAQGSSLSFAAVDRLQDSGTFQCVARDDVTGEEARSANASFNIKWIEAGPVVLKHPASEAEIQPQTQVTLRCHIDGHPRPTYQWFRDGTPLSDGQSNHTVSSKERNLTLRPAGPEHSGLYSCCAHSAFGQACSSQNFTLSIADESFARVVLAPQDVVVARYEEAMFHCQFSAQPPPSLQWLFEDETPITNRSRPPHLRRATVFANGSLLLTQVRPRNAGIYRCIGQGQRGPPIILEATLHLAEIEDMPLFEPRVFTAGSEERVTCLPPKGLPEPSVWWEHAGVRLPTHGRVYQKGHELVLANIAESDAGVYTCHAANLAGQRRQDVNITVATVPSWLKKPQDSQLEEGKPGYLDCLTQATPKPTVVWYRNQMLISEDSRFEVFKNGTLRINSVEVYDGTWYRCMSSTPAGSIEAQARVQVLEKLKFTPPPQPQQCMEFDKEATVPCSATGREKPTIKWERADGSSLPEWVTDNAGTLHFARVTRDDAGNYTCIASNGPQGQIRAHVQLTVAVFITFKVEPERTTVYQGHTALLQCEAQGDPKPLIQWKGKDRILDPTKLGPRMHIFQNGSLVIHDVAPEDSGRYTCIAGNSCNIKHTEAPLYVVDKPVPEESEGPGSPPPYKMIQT
Protocol: (§1) Relative positions of target protein epitope between a pair of purified anti-PTK7 antibodies were analyzed by Biolayer Interferometry (BLI) using ForteBio Octet system at 30° C. A total of […] purified antibodies were used: 1A7, 1A11, 1F2, 2A5, 2D11, 2F5, 3C4 and 3E6.
(§2) 1×HBS-EP+ buffer (10 mM 4-(2-hydroxyethyl)-1-piperazineethanesulfonic acid (HEPES), 150 mM NaCl, 3 mM ethylenediaminetetraacetic acid (EDTA) and 0.05% P20, pH7.4) diluted from HBS-EP+ buffer (10×) was used as the running buffer throughout the experiment. His-tagged human PTK7 protein was captured at a flow rate of 10 μL/min, and 200 nM of antibody (Analyte 1) was injected at a flow rate of 30 μL/min to bind the ligand. Another antibody (Analyte 2) was injected under the same conditions to determine whether the binding of different antibodies interfered with each other. The binding time was 300 s for each antibody.
(§3) The binding value of each antibody was obtained using Data Analysis HT 12.0. To quantify the interference of one antibody binding to another, a binding ratio was calculated to compare each pair of antibodies. The binding ratio is defined as the binding value of the second antibody (Analyte 2), divided by the binding value of the first antibody (Analyte 1). […] In general, antibody pairs that interfere with each other have the same or overlapping epitopes.

[3] = molecular target: T2, His-tagged human PTK7 protein; experiment: BLI Octet binning on hPTK7-His; competitor 3C4
Protocol: as §1, §2, §3

MFI [1]: 89400
binding ratio [2]: 0.97
binding ratio [3]: 0.67
B1: 1A11 (antibody, V domains shown)
VH: QVQLVQSGPGLVKPSETLSLTCTVSGGSINSYYWNWIRQPPGKGLEWIGYIYYSGSTNYNPSLKSRVTISVDTSKNQFSLKLSSVTAADTAVYYCARDPHDYIRGHFDLWGRGTLFTVSS
VL: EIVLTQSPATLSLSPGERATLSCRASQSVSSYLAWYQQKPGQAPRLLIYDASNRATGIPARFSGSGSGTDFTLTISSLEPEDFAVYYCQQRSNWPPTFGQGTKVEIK
notes: also called anti-PTK7 antibody 1A11

MFI [1]: 98800
binding ratio [2]: 1.22
binding ratio [3]: 0.16
B2: 3C4 (antibody, V domains shown)
VH: QVQLEQSRAEVKKPGESLRISCKGSGYSFTSYWISWVRQMPGKGLEWMGRIDPSDSYTNYNPSFQGHVTISADKSISTAYLQWSSLKASDTAMYYCARRDGSYFDFDYWGQGTLVTVSS
VL: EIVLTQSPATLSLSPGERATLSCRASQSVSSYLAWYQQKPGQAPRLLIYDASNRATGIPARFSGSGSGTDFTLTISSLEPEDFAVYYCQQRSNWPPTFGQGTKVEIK
notes: also called anti-PTK7 antibody 3C4

MFI [1]: 117000
binding ratio [2]: 0.98
binding ratio [3]: 0.11
B3: 3E6 (antibody, V domains shown)
VH: B2 VH with E5V, Q6E, R8G, K23R, N59K, N61S, S102D
VL: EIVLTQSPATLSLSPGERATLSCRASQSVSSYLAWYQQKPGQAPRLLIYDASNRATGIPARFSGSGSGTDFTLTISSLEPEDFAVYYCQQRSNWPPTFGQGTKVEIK
notes: also called anti-PTK7 antibody 3E6

MFI [1]: 52900
binding ratio [2]: 0.2
binding ratio [3]: 0.66
B4: 1A7 (antibody, human IgG1, V domains shown)
VH: QVQLVESGGGVVQPGRSLRLSCAASGFTFSNYGMHWVRQAPGKGLEWVAVIYYDGSNKFYADSVKGRFTISRDNSKNTLYLQMSSLRAEDTAVYYCARDVAPPGSRAEYFHHWGQGTLVTVSS
VL: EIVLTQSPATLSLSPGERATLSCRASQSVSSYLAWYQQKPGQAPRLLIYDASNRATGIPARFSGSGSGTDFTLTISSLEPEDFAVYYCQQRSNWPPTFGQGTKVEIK
notes: also called anti-PTK7 antibody 1A7

MFI [1]: 51900
binding ratio [2]: 0.19
binding ratio [3]: 0.71
B5: 2F5 (antibody, V domains shown)
VH: B4 VH with A23V, V50I, F59Y, S84N, P102A, P103A, F110L
VL: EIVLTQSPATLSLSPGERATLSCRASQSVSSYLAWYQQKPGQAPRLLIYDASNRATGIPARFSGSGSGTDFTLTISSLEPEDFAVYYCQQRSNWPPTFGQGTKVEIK
notes: also called anti-PTK7 antibody 2F5

MFI [1]: 103000
binding ratio [2]: 0.21
binding ratio [3]: 0.81
B6: 2D11 (antibody, V domains shown)
VH: B4 VH with N31S, Y52F, F59Y, S84N, A92S, P102A, H111Q, H112N
VL: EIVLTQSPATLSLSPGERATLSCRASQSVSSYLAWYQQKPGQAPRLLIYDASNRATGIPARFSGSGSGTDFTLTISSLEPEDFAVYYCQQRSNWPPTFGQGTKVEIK
notes: also called anti-PTK7 antibody 2D11

MFI [1]: 87700
binding ratio [2]: 0.04
binding ratio [3]: 0.62
B7: 2A5 (antibody, V domains shown)
VH: B4 VH with E6Q, Y52W, S56R, F59Y, S84N, P103A, H111Q, H112N
VL: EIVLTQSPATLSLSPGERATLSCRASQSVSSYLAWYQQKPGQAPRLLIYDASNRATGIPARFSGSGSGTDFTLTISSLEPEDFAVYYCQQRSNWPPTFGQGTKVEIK
notes: also called anti-PTK7 antibody 2A5

MFI [1]: 33900
binding ratio [2]: 0.95
binding ratio [3]: 0.48
B8: 1F2 (antibody, V domains shown)
VH: QVQLVQSGGGLVQPGGSLRLSCAASGFTFSRYEMNWVRQAPGKGLEWVSYINSIGSAINYADSVKGRFTISRDNAKNSLYLQMRSLRAEDTAVYYCVREDNWNPGYWGQGTLVTVSS
VL: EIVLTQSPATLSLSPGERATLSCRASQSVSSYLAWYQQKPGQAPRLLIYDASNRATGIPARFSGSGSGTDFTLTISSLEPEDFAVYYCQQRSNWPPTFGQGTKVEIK
notes: also called anti-PTK7 antibody 1F2
